In US20170008937:

Target: GST-Rac1 (UniProt P63000)

Substance: TcdASAS (Clostridium difficile toxin A with VNN mutated to SAS: V1109S, N1110A, N1111S)
- Rac1 glucosylation in vitro (Western blot, 100 nM toxin, 3 hours): not impaired in their capacity to glucosylate Rac1 in vitro
